Data: patent US20200017862
Residue numbers refer to the chain shown, from its start. In names and notes the source's numbering stands.

B1: GST-APE2 (recombinant GST-tagged Xenopus APE2) (protein)
chain: MKIVSWNINGIRATRVGLKETLDSLDADIICLQETKVTRDLLDEPSAIVEGYNSYFSFSRVRSGYSGVATFCKSSTTPQAAEEGLSGVFCNRTGSVGCYGNTEQFLEEELQSLDQEGRAVLTQHRILNCEDKEETLTVINVYCPRADPEKPERKTYKLRFYHLLQTRAEAILQNGGHVIILGDVNTSHRPLDHCDPTDLETFEENPGRQWLNQFLGDPIPSQKGDSETVMPPSAGSGLFYDSFRYFHPTQKNAFTCWCSASGARQTNYGTRIDYILGNRELVESEFLDSVIMPEVEGSDHCPVKAFMKCQPIAANKCPPLCTKYLPEFAGRQQKLLQFLVKKENTLGNTTEESSELTGTPSFTEGADISTVRKRPSDKLNSTSKKKSKIVTKNGQGNLLSFFKPERQKLTMATECNPIEVPICKKEKTVQKDLQPATPAVKYNKPQTAFWKSLLKGPPPPPNCKGHSEPCVLRTVKKAGPNCGRQFYVCARPEGHSSNPQARCNFFLWLTKKAGCED
B2: WT Myc-APE2 (recombinant Myc-tagged Xenopus APE2) (protein)
chain: B1 chain
B3: C470A Myc-APE2 (protein)
chain: B1 chain with C470A
B4: G483A-R484A Myc-APE2 (protein)
chain: B1 chain with G483A, R484A

Columns and labels:
[1] = molecular target: LI PCNA (His-tagged mutant Xenopus PCNA), P18248
[2] = molecular target: LIPK PCNA (L126A-I128A-P253A-K254A PCNA, His-tagged), P18248
[3] = molecular target: PK PCNA (P253A-K254A PCNA, His-tagged), P18248
[4] = molecular target: WT His-tagged PCNA (recombinant Xenopus PCNA), P18248
[5] = molecular target: PCNA, endogenous, in Xenopus egg extract (HSS), P18248
PCNA, endogenous, in Xenopus egg extract (HSS), P18248, sequence (P18248 whole entry): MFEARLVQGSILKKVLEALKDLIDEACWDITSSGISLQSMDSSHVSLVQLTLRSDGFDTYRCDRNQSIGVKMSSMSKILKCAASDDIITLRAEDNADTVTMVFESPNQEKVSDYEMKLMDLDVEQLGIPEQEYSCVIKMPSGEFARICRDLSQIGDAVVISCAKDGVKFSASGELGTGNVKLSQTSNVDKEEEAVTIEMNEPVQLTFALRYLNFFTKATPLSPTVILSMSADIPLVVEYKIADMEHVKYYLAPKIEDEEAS

LIPK PCNA (L126A-I128A-P253A-K254A PCNA, His-tagged), P18248, sequence (P18248 whole entry L126A/I128A/P253A/K254A): as the sequence (P18248 whole entry) above, with L126A, I128A, P253A, K254A counted along it
PK PCNA (P253A-K254A PCNA, His-tagged), P18248, sequence (P18248 whole entry P253A/K254A): as the sequence (P18248 whole entry) above, with P253A, K254A counted along it
WT His-tagged PCNA (recombinant Xenopus PCNA), P18248, sequence (P18248 whole entry): as the sequence (P18248 whole entry) above
LI PCNA (His-tagged mutant Xenopus PCNA), P18248, sequence (P18248 other isoform, or with tags, fused parts or gaps mutant): as the sequence (P18248 whole entry) above, with L126A, I128A counted along it

Protein | exonuclease activity on FAM-labeled gapped dsDNA (Type I resected products), purified proteins in vitro [1] | exonuclease activity on FAM-labeled gapped dsDNA (Type I resected products), purified proteins in vitro [2] | exonuclease activity on FAM-labeled gapped dsDNA (Type I resected products), purified proteins in vitro [3] | exonuclease activity on FAM-labeled gapped dsDNA (Type I resected products), purified proteins in vitro [4] | 3'-5' SSB end resection of FAM-SSB in APE2-depleted HSS [5] | SSB-induced Chk1 phosphorylation in APE2-depleted HSS [5] | hydrogen peroxide-induced Chk1 phosphorylation in APE2-depleted LSS [5] | recruitment of RPA32, ATR, ATRIP, TopBP1, and Rad9 to SSB plasmid in APE2-depleted HSS [5]
B1 | The gapped dsDNA was catalyzed into Type I resected products by recombinant APE2 with the presence of WT PCNA, but not LIPK PCNA, LI PCNA, or PK PCNA | The gapped dsDNA was catalyzed into Type I resected products by recombinant APE2 with the presence of WT PCNA, but not LIPK PCNA, LI PCNA, or PK PCNA | The gapped dsDNA was catalyzed into Type I resected products by recombinant APE2 with the presence of WT PCNA, but not LIPK PCNA, LI PCNA, or PK PCNA | The gapped dsDNA was catalyzed into Type I resected products by recombinant APE2 with the presence of WT PCNA, but not LIPK PCNA, LI PCNA, or PK PCNA |  |  |  | 
B2 |  |  |  |  | VVT APE2 but not C470A APE2 rescued the deficiency of SSB end resection of FAM-SSB in APE2-depleted HSS | WT, but not C470A, APE2 was found to rescue the SSB-induced Chk1 phosphorylation in APE2-depleted HSS | VVT APE2, but not G483A-R484A APE2, rescued the hydrogen peroxide-induced Chk1 phosphorylation in APE2-depleted LSS system | WT APE2, but not C470A APE2, rescued the recruitment of RPA32, ATR, ATRIP, TopBP1, and Rad9 to SSB in APE2-depleted HSS
B3 |  |  |  |  | VVT APE2 but not C470A APE2 rescued the deficiency of SSB end resection of FAM-SSB in APE2-depleted HSS | WT, but not C470A, APE2 was found to rescue the SSB-induced Chk1 phosphorylation in APE2-depleted HSS |  | WT APE2, but not C470A APE2, rescued the recruitment of RPA32, ATR, ATRIP, TopBP1, and Rad9 to SSB in APE2-depleted HSS
B4 |  |  |  |  |  | G483A-R484A APE2, which is deficient in interaction with ssDNA and PCNA CTM motif (FIGS. 12D and 12E), also failed to rescue the SSB-induced Chk1 phosphorylation in APE2-depleted HSS | VVT APE2, but not G483A-R484A APE2, rescued the hydrogen peroxide-induced Chk1 phosphorylation in APE2-depleted LSS system | 
